Results on one molecule are retold here after publication PMC3578790, “Tight Interconnection and Multi-Level Control of Arabidopsis MYB44 in MAPK Cascade Signalling”.

One series concerns the target MYB44 S145D (Arabidopsis thaliana? (Arabidopsis, …, UniProt Q9FDW1 1-305, S145D)). The experiment in a line: EMSA; no discernible difference from wild type; 10 mM Tris pH 8.0, 5 mM MgCl2, 100 mM KCl, 0.02% Triton X-100, 0.1 mg/ml BSA, 0.25% Tween, 2.5 mM DTT, 3 ng/ul poly(dIdC); 30 min room temperature; 5% PAGE in 0.5x TBE or TAE (TAE main) at 4 C. As to conditions: protein: recombinant; label: 5' Dy782 (Methods; called IRDye in Results); (only one strand printed).

Another series concerns the target MYB44 S145A (Arabidopsis thaliana? (Arabidopsis, …, UniProt Q9FDW1 1-305, S145A)). The series is described as above. As to conditions: protein: recombinant; label: 5' Dy782 (Methods; called IRDye in Results); (only one strand printed).

MYB44 S145A (Arabidopsis thaliana?, sequence (Q9FDW1 whole entry S145A): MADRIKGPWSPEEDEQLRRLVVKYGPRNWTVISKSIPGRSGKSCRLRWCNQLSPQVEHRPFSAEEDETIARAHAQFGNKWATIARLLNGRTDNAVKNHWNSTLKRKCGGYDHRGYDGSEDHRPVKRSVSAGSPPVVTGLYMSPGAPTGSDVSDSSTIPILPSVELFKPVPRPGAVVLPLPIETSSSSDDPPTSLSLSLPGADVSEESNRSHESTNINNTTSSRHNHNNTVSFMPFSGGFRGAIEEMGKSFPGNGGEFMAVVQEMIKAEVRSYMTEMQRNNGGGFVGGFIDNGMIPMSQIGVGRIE
MYB44 S145D (Arabidopsis thaliana?, sequence (Q9FDW1 whole entry S145D): as the sequence (Q9FDW1 whole entry S145A) above, with A145D counted along it

B1: MBSII (dsDNA)
DNA 1: AGCTTCAAAAGTTAGTTACG
DNA 2: CGTAACTAACTTTTGAAGCT
With B1, the binding result with MYB44 S145D and with MYB44 S145A was “binds” throughout.
